T1: Rpn1^PC1 (Rpn1^391–642) (yeast (BY4741), UniProt P38764 391-642)
T1 sequence (looked up): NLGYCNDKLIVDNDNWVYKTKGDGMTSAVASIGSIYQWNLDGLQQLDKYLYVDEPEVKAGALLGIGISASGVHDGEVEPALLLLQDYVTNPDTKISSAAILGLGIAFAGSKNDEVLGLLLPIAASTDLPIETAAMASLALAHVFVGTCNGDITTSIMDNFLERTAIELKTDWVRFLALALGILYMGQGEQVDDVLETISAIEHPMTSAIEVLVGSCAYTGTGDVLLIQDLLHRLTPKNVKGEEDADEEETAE


Biological target: T1, Rpn1^PC1 (Rpn1^391–642)
Experiment: NMR titration

Kd	Binder
40 ± 31 µM	Ubp6^UBL (domain or fragment, yeast (BY4741), UniProt P43593 1-80, looked up, 15N-labelled) MSGETFEFNIRHSGKVYPITLSTDATSADLKSKAEELTQVPSARQKYMVKGGLSGEESIKIYPLIKPGSTVMLLGTPDAN
280 ± 20 µM	Rub1 (natural protein, yeast (BY4741), UniProt Q03919 1-77, looked up, 15N-labelled) MIVKVKTLTGKEISVELKESDLVYHIKELLEEKEGIPPSQQRLIFQGKQIDDKLTVTDAHLVEGMQLHLVLTLRGG
22 ± 12 µM	Dsk2^UBL (domain or fragment, yeast (BY4741), UniProt P48510 1-76, looked up) MSLNIHIKSGQDKWEVNVAPESTVLQFKEAINKANGIPVANQRLIYSGKILKDDQTVESYHIQDGHSVHLVKSQPK

From paper PMC5453731 (Cell chemical biology, 2017)
